{"source": "paper PMC6289755", "about": "(Journal of molecular biology, 2018)", "key": {"TRIM25 SPRY": {"target": "TRIM25 SPRY (human, UniProt Q14258 410-630)", "experiment": "EMSA"}, "TRIM25 ΔSPRY (RBCC)": {"target": "TRIM25 ΔSPRY (RBCC) (human, UniProt Q14258 1-379)", "experiment": "EMSA"}, "TRIM25 7K peptide": {"target": "T1, TRIM25 7K peptide (human, UniProt Q14258 379-394)", "T1 chain": "PVKKVSKEEKKSKKPP", "experiment": "EMSA"}, "TRIM25 CCD-SPRY": {"target": "TRIM25 CCD-SPRY (human, UniProt Q14258 189-630)", "sequence (Q14258 189-630)": "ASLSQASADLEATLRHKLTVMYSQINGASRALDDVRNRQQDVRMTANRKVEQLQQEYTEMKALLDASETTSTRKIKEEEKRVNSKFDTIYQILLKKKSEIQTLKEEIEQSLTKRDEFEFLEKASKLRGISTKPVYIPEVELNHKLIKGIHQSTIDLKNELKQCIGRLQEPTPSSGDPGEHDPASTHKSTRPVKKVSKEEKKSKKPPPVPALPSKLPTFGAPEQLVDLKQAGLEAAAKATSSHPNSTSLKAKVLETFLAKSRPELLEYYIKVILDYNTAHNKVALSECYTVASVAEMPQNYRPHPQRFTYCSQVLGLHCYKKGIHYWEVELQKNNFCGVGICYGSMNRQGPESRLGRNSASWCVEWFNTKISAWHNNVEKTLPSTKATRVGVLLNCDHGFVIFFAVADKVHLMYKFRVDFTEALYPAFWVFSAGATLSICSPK", "experiment": "EMSA"}, "TRIM25 CCD": {"target": "TRIM25 CCD (human, UniProt Q14258 189-379)", "experiment": "EMSA"}, "TRIM25 CCD+7K": {"target": "TRIM25 CCD+7K (human, UniProt Q14258 189-409)", "sequence (Q14258 189-409)": "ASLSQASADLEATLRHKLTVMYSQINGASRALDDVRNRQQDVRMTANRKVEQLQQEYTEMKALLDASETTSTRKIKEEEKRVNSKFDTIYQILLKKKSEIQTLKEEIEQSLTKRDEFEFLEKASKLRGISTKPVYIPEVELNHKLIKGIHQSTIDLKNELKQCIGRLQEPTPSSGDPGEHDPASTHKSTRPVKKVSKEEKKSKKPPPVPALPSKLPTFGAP", "experiment": "EMSA"}, "TRIM25 WT [1]": {"target": "T2, TRIM25 WT (human, UniProt Q14258 1-630)", "T2 sequence (Q14258 whole entry)": "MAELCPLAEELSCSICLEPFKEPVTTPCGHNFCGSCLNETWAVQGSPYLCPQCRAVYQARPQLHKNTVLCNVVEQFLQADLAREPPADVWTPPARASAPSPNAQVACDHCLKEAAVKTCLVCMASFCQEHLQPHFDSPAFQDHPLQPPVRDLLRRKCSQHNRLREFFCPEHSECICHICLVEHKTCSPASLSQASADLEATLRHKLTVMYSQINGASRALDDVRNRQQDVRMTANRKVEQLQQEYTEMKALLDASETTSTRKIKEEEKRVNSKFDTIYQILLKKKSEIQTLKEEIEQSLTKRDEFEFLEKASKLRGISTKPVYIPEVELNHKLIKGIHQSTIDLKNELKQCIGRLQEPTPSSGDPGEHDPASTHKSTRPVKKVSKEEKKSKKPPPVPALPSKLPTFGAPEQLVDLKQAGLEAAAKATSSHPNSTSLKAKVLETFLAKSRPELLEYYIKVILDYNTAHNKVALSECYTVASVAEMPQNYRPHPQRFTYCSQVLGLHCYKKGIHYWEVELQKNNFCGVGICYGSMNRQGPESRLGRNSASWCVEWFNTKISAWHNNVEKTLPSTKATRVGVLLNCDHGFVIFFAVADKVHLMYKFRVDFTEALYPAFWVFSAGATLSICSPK", "experiment": "EMSA"}, "SEC-MALS": {"target": "the molecule itself", "experiment": "SEC-MALS"}, "TRIM25 WT [2]": {"target": "T2, TRIM25 WT", "experiment": "SEC-MALS"}, "TRIM25 7KA mutant": {"target": "TRIM25 7KA mutant (human, UniProt Q14258 1-630, K381A;K382A;K385A;K388A;K389A;K391A;K392A)", "experiment": "SEC-MALS"}}}
{"binder": "28-bp dsRNA, fluorescent (dsRNA) RNA 1: AUGGCUAGCUGGAGCCACCCGCAGUUCG RNA 2: CGAACUGCGGGUGGCUCCAGCUAGCCAU", "values": [{"measurement": "Kd", "setting": "TRIM25 SPRY", "result": "3470 ± 1170", "unit": "nM"}, {"measurement": "binding result", "setting": "TRIM25 ΔSPRY (RBCC)", "result": "no binding"}, {"measurement": "binding result", "setting": "TRIM25 7K peptide", "result": "no binding"}, {"measurement": "Kd", "setting": "TRIM25 CCD-SPRY", "result": "110 ± 20", "unit": "nM"}, {"measurement": "binding result", "setting": "TRIM25 CCD", "result": "no binding"}, {"measurement": "binding result", "setting": "TRIM25 CCD+7K", "result": "no binding"}, {"measurement": "Kd", "setting": "TRIM25 WT [1]", "result": "260 ± 30", "unit": "nM"}]}
{"binder": "Full-length TRIM25 7KA mutant, purified (enzyme, human, UniProt Q14258 1-630, looked up) MAELCPLAEELSCSICLEPFKEPVTTPCGHNFCGSCLNETWAVQGSPYLCPQCRAVYQARPQLHKNTVLCNVVEQFLQADLAREPPADVWTPPARASAPSPNAQVACDHCLKEAAVKTCLVCMASFCQEHLQPHFDSPAFQDHPLQPPVRDLLRRKCSQHNRLREFFCPEHSECICHICLVEHKTCSPASLSQASADLEATLRHKLTVMYSQINGASRALDDVRNRQQDVRMTANRKVEQLQQEYTEMKALLDASETTSTRKIKEEEKRVNSKFDTIYQILLKKKSEIQTLKEEIEQSLTKRDEFEFLEKASKLRGISTKPVYIPEVELNHKLIKGIHQSTIDLKNELKQCIGRLQEPTPSSGDPGEHDPASTHKSTRPVAAVSAEEAASAAPPPVPALPSKLPTFGAPEQLVDLKQAGLEAAAKATSSHPNSTSLKAKVLETFLAKSRPELLEYYIKVILDYNTAHNKVALSECYTVASVAEMPQNYRPHPQRFTYCSQVLGLHCYKKGIHYWEVELQKNNFCGVGICYGSMNRQGPESRLGRNSASWCVEWFNTKISAWHNNVEKTLPSTKATRVGVLLNCDHGFVIFFAVADKVHLMYKFRVDFTEALYPAFWVFSAGATLSICSPK", "values": [{"measurement": "binding result", "setting": "SEC-MALS", "result": "binds"}]}
{"binder": "56-bp dsRNA (dsRNA) RNA 1: AUGGCUAGCUGGAGCCACCCGCAGUUCGUACAAGGAUGACGAUGACAAGGGUACAA RNA 2: UUGUACCCUUGUCAUCGUCAUCCUUGUACGAACUGCGGGUGGCUCCAGCUAGCCAU", "values": [{"measurement": "binding result", "setting": "TRIM25 WT [2]", "result": "binds"}, {"measurement": "binding result", "setting": "TRIM25 7KA mutant", "result": "no binding"}]}
